Assay results taken from paper PMC6717114 (Biochemical Journal, 2019).

Biological target: Mouse Pcdh15 EC1-2 wild-type (mouse, UniProt Q99PJ1-18 27-259)
Assay: single-molecule force spectroscopy

B1: Mouse Cdh23 EC1-2 wild-type (domain or fragment, UniProt Q99PF4 24-228, looked up)
chain: QVNRLPFFTNHFFDTYLLISEDTPVGSSVTQLLARDMDNDPLVFGVSGEEASRFFAVEPDTGVVWLRQPLDRETKSEFTVEFSVSDHQGVITRKVNIQVGDVNDNAPTFHNQPYSVRIPENTPVGTPIFIVNATDPDLGAGGSVLYSFQPPSPFFAIDSARGIVTVIQELDYEVTQAYQLTVNATDQDKTRPLSTLANLAIIITD
koff: 0.0045 s⁻¹
